The results in this text go back to publication PMC10120734.

For this experiment, the target named is free UbcH8 (Ube2L6), GST tag removed (human). The experiment in a line: SAXS.

In general, stoichiometry N refers to the number of molecules, sites or subunits per partner or assembly. “free UbcH8 (Ube2L6), GST tag removed (enzyme)” yielded a stoichiometry N of 2.
